# Target: trastuzumab (human)
# Test: fluorescence polarisation
row,Substance,IC50 [nM]
1,Fc-III W11K (peptide),> 3000
2,Fc-III V10K (peptide),> 3000
3,Fc-III W4K (peptide),> 3000
